# According to publication PMC9546773, “Prediction of protein–ligand binding affinity from sequencing data with interpretable machine learning”:
# Target: Dll (DllΔN) (Drosophila melanogaster, UniProt P20009 124-327)
# Experiment: EMSA; 1:1 mix of dialysis buffer (20 mM HEPES pH 8.0, 200 mM NaCl, 10% glycerol, 2 mM MgCl2, 0.05% Tween 20) and DNA mix; final about 150 mM NaCl, 10 mM Tris pH 7.5
# Conditions: tags: His6 (kept); label: Cy5 on the primer strand
# Sequence of Dll (DllΔN) (P20009 124-327, stated change not applied): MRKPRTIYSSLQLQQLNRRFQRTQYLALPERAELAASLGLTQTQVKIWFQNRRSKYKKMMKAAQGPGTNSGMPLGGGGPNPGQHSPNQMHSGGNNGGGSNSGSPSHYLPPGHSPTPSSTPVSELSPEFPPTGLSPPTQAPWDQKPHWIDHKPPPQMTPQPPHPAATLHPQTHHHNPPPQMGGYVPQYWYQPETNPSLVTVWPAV
row,Binder,Kd
1,probe 1 (dsDNA) DNA 1: GTTCAGAGTTCTACAGTCCGACCTGGTTTAATTGGTCCAGGACTCGGACCTGGACTAGG DNA 2: CCTAGTCCAGGTCCGAGTCCTGGACCAATTAAACCAGGTCGGACTGTAGAACTCTGAAC,0.0052 µM
2,probe 4 (dsDNA) DNA 1: GTTCAGAGTTCTACAGTCCGACCTGGTTTAATGGGTCCAGGACTCGGACCTGGACTAGG DNA 2: CCTAGTCCAGGTCCGAGTCCTGGACCCATTAAACCAGGTCGGACTGTAGAACTCTGAAC,0.0408 µM
3,probe 3 (dsDNA) DNA 1: GTTCAGAGTTCTACAGTCCGACCTGGTTTATTTGGTCCAGGACTCGGACCTGGACTAGG DNA 2: CCTAGTCCAGGTCCGAGTCCTGGACCAAATAAACCAGGTCGGACTGTAGAACTCTGAAC,~2.64 µM
4,probe 2 (dsDNA) DNA 1: GTTCAGAGTTCTACAGTCCGACCTGGTTTGATTGGTCCAGGACTCGGACCTGGACTAGG DNA 2: CCTAGTCCAGGTCCGAGTCCTGGACCAATCAAACCAGGTCGGACTGTAGAACTCTGAAC,0.0927 µM
